Data taken from the supplement of paper PMC9112550, “Optimization of the antimicrobial peptide Bac7 by deep mutational scanning” (BMC Biology, 2022).

Tested on: Escherichia coli TOP10
Test: shrunken log2 fold change of peptide-encoding DNA abundance (4.5 h post-induction vs induction); higher = less antimicrobial activity (less host growth inhibition)
Details: time post-induction: 4.5 h; library: site-saturation at positions 5, 18, 19, 20
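Also: peptides expressed intracellularly from a pBAD plasmid library in pooled LB shake-flask culture, induced with 0.3% L-arabinose, DNA abundance read by NGS, three biological replicates, DESeq2 with apeglm shrinkage.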

RRIRNRPPRLPRPRPRPIMFPRP
shrunken log2 fold change: -0.0388

RRIRNRPPRLPRPRPRPIMLPRP
shrunken log2 fold change: -0.482

RRIRNRPPRLPRPRPRPIMQPRP
shrunken log2 fold change: -0.0584

RRIRNRPPRLPRPRPRPINPPRP
shrunken log2 fold change: -0.796

RRIRNRPPRLPRPRPRPIQPPRP
shrunken log2 fold change: -0.213

RRIRNRPPRLPRPRPRPISLPRP
shrunken log2 fold change: -0.0292

RRIRNRPPRLPRPRPRPITDPRP
shrunken log2 fold change: -1.28

RRIRNRPPRLPRPRPRPIVSPRP
shrunken log2 fold change: -0.00673

RRIRNRPPRLPRPRPRPIWGPRP
shrunken log2 fold change: -0.0075

RRIRNRPPRLPRPRPRPIWSPRP
shrunken log2 fold change: 0.0615

RRIRNRPPRLPRPRPRPIYNPRP
shrunken log2 fold change: -0.642

RRIRNRPPRLPRPRPRPIYSPRP
shrunken log2 fold change: -0.0185

RRIRNRPPRLPRPRPRPKADPRP
shrunken log2 fold change: -0.0273

RRIRNRPPRLPRPRPRPKAKPRP
shrunken log2 fold change: 0.146

RRIRNRPPRLPRPRPRPKANPRP
shrunken log2 fold change: 0.177

RRIRNRPPRLPRPRPRPKCVPRP
shrunken log2 fold change: -0.0346

RRIRNRPPRLPRPRPRPKCYPRP
shrunken log2 fold change: -0.0478

RRIRNRPPRLPRPRPRPKDCPRP
shrunken log2 fold change: -0.0418

RRIRNRPPRLPRPRPRPKDDPRP
shrunken log2 fold change: 0.0456

RRIRNRPPRLPRPRPRPKDIPRP
shrunken log2 fold change: 0.0127

RRIRNRPPRLPRPRPRPKEHPRP
shrunken log2 fold change: -0.0991

RRIRNRPPRLPRPRPRPKEKPRP
shrunken log2 fold change: -0.016

RRIRNRPPRLPRPRPRPKENPRP
shrunken log2 fold change: -0.409

RRIRNRPPRLPRPRPRPKFNPRP
shrunken log2 fold change: -0.569

RRIRNRPPRLPRPRPRPKLIPRP
shrunken log2 fold change: -0.0332

RRIRNRPPRLPRPRPRPKLPPRP
shrunken log2 fold change: 0.0992

RRIRNRPPRLPRPRPRPKLQPRP
shrunken log2 fold change: 0.114

RRIRNRPPRLPRPRPRPKMIPRP
shrunken log2 fold change: -0.495

RRIRNRPPRLPRPRPRPKNMPRP
shrunken log2 fold change: -0.189

RRIRNRPPRLPRPRPRPKNWPRP
shrunken log2 fold change: 0.168

RRIRNRPPRLPRPRPRPKPNPRP
shrunken log2 fold change: 0.513

RRIRNRPPRLPRPRPRPKPRPRP
shrunken log2 fold change: 0.83

RRIRNRPPRLPRPRPRPKQAPRP
shrunken log2 fold change: -0.00865

RRIRNRPPRLPRPRPRPKQHPRP
shrunken log2 fold change: -0.253

RRIRNRPPRLPRPRPRPKSMPRP
shrunken log2 fold change: 0.0478

RRIRNRPPRLPRPRPRPKSWPRP
shrunken log2 fold change: 0.432

RRIRNRPPRLPRPRPRPKTFPRP
shrunken log2 fold change: -0.399

RRIRNRPPRLPRPRPRPKTNPRP
shrunken log2 fold change: 0.0551

RRIRNRPPRLPRPRPRPLDFPRP
shrunken log2 fold change: -0.386

RRIRNRPPRLPRPRPRPLEHPRP
shrunken log2 fold change: -0.0225

RRIRNRPPRLPRPRPRPLFAPRP
shrunken log2 fold change: 0.0932

RRIRNRPPRLPRPRPRPLFCPRP
shrunken log2 fold change: -0.495

RRIRNRPPRLPRPRPRPLFNPRP
shrunken log2 fold change: -0.777

RRIRNRPPRLPRPRPRPLFVPRP
shrunken log2 fold change: -0.495

RRIRNRPPRLPRPRPRPLFWPRP
shrunken log2 fold change: 0.0854

RRIRNRPPRLPRPRPRPLHFPRP
shrunken log2 fold change: -0.563

RRIRNRPPRLPRPRPRPLHNPRP
shrunken log2 fold change: -0.503

RRIRNRPPRLPRPRPRPLKNPRP
shrunken log2 fold change: -0.234

RRIRNRPPRLPRPRPRPLKWPRP
shrunken log2 fold change: 0.0542

RRIRNRPPRLPRPRPRPLKYPRP
shrunken log2 fold change: -0.0547

RRIRNRPPRLPRPRPRPLLLPRP
shrunken log2 fold change: -0.25

RRIRNRPPRLPRPRPRPLLQPRP
shrunken log2 fold change: -0.137

RRIRNRPPRLPRPRPRPLMHPRP
shrunken log2 fold change: -0.0721

RRIRNRPPRLPRPRPRPLMLPRP
shrunken log2 fold change: -0.842

RRIRNRPPRLPRPRPRPLNLPRP
shrunken log2 fold change: -0.25

RRIRNRPPRLPRPRPRPLNTPRP
shrunken log2 fold change: -0.413

RRIRNRPPRLPRPRPRPLPCPRP
shrunken log2 fold change: -0.207

RRIRNRPPRLPRPRPRPLPEPRP
shrunken log2 fold change: -0.00875

RRIRNRPPRLPRPRPRPLQIPRP
shrunken log2 fold change: -0.143

RRIRNRPPRLPRPRPRPLQTPRP
shrunken log2 fold change: -0.0644

RRIRNRPPRLPRPRPRPLRNPRP
shrunken log2 fold change: 0.267

RRIRNRPPRLPRPRPRPLRTPRP
shrunken log2 fold change: 0.717

RRIRNRPPRLPRPRPRPLRVPRP
shrunken log2 fold change: 0.896

RRIRNRPPRLPRPRPRPLSQPRP
shrunken log2 fold change: -0.00581

RRIRNRPPRLPRPRPRPLTEPRP
shrunken log2 fold change: 0.284

RRIRNRPPRLPRPRPRPLVCPRP
shrunken log2 fold change: -0.201

RRIRNRPPRLPRPRPRPLYMPRP
shrunken log2 fold change: -0.308

RRIRNRPPRLPRPRPRPLYRPRP
shrunken log2 fold change: -0.332

RRIRNRPPRLPRPRPRPLYTPRP
shrunken log2 fold change: -0.269

RRIRNRPPRLPRPRPRPMAAPRP
shrunken log2 fold change: 0.582

RRIRNRPPRLPRPRPRPMCNPRP
shrunken log2 fold change: -0.0631

RRIRNRPPRLPRPRPRPMCYPRP
shrunken log2 fold change: -0.0198

RRIRNRPPRLPRPRPRPMDNPRP
shrunken log2 fold change: -0.105

RRIRNRPPRLPRPRPRPMEHPRP
shrunken log2 fold change: 0.0201

RRIRNRPPRLPRPRPRPMFCPRP
shrunken log2 fold change: 0.0294

RRIRNRPPRLPRPRPRPMGYPRP
shrunken log2 fold change: -0.00459

RRIRNRPPRLPRPRPRPMIGPRP
shrunken log2 fold change: -0.536

RRIRNRPPRLPRPRPRPMMWPRP
shrunken log2 fold change: -0.0283

RRIRNRPPRLPRPRPRPMNRPRP
shrunken log2 fold change: -0.00285

RRIRNRPPRLPRPRPRPMPCPRP
shrunken log2 fold change: 0.05

RRIRNRPPRLPRPRPRPMPPPRP
shrunken log2 fold change: 0.208

RRIRNRPPRLPRPRPRPMPSPRP
shrunken log2 fold change: 0.0832

RRIRNRPPRLPRPRPRPMQCPRP
shrunken log2 fold change: 0.0637

RRIRNRPPRLPRPRPRPMSIPRP
shrunken log2 fold change: 0.00262

RRIRNRPPRLPRPRPRPMSTPRP
shrunken log2 fold change: -0.0292

RRIRNRPPRLPRPRPRPMTMPRP
shrunken log2 fold change: 0.0125

RRIRNRPPRLPRPRPRPMTTPRP
shrunken log2 fold change: -0.174

RRIRNRPPRLPRPRPRPMVWPRP
shrunken log2 fold change: -0.03

RRIRNRPPRLPRPRPRPMWGPRP
shrunken log2 fold change: -0.018

RRIRNRPPRLPRPRPRPMYLPRP
shrunken log2 fold change: -0.251

RRIRNRPPRLPRPRPRPNAIPRP
shrunken log2 fold change: -0.0211

RRIRNRPPRLPRPRPRPNCEPRP
shrunken log2 fold change: -0.185

RRIRNRPPRLPRPRPRPNDGPRP
shrunken log2 fold change: -0.00674

RRIRNRPPRLPRPRPRPNDKPRP
shrunken log2 fold change: -0.549

RRIRNRPPRLPRPRPRPNEFPRP
shrunken log2 fold change: -0.692

RRIRNRPPRLPRPRPRPNFEPRP
shrunken log2 fold change: -0.0924

RRIRNRPPRLPRPRPRPNFNPRP
shrunken log2 fold change: -0.734

RRIRNRPPRLPRPRPRPNGGPRP
shrunken log2 fold change: 0.153

RRIRNRPPRLPRPRPRPNHLPRP
shrunken log2 fold change: -0.317

RRIRNRPPRLPRPRPRPNHWPRP
shrunken log2 fold change: -0.125

RRIRNRPPRLPRPRPRPNIGPRP
shrunken log2 fold change: -0.00968

RRIRNRPPRLPRPRPRPNIWPRP
shrunken log2 fold change: -0.636

RRIRNRPPRLPRPRPRPNKYPRP
shrunken log2 fold change: -0.774

RRIRNRPPRLPRPRPRPNMHPRP
shrunken log2 fold change: -0.433

RRIRNRPPRLPRPRPRPNNKPRP
shrunken log2 fold change: -0.63

RRIRNRPPRLPRPRPRPNQVPRP
shrunken log2 fold change: -0.255

RRIRNRPPRLPRPRPRPNTTPRP
shrunken log2 fold change: -0.209

RRIRNRPPRLPRPRPRPNTWPRP
shrunken log2 fold change: -0.382

RRIRNRPPRLPRPRPRPNVIPRP
shrunken log2 fold change: -0.261

RRIRNRPPRLPRPRPRPNVYPRP
shrunken log2 fold change: -0.17

RRIRNRPPRLPRPRPRPNWDPRP
shrunken log2 fold change: -0.163

RRIRNRPPRLPRPRPRPNWLPRP
shrunken log2 fold change: 0.0494

RRIRNRPPRLPRPRPRPNWVPRP
shrunken log2 fold change: 0.0876

RRIRNRPPRLPRPRPRPNYKPRP
shrunken log2 fold change: -0.827

RRIRNRPPRLPRPRPRPPACPRP
shrunken log2 fold change: 0.301

RRIRNRPPRLPRPRPRPPAEPRP
shrunken log2 fold change: 0.256

RRIRNRPPRLPRPRPRPPCEPRP
shrunken log2 fold change: 0.0665

RRIRNRPPRLPRPRPRPPCLPRP
shrunken log2 fold change: -0.236

RRIRNRPPRLPRPRPRPPDAPRP
shrunken log2 fold change: 0.0157

RRIRNRPPRLPRPRPRPPDNPRP
shrunken log2 fold change: -0.146

RRIRNRPPRLPRPRPRPPDWPRP
shrunken log2 fold change: 0.641

RRIRNRPPRLPRPRPRPPGQPRP
shrunken log2 fold change: 0.0465

RRIRNRPPRLPRPRPRPPGWPRP
shrunken log2 fold change: 1.24

RRIRNRPPRLPRPRPRPPHLPRP
shrunken log2 fold change: 0.155

RRIRNRPPRLPRPRPRPPHPPRP
shrunken log2 fold change: 0.292

RRIRNRPPRLPRPRPRPPIDPRP
shrunken log2 fold change: -0.306

RRIRNRPPRLPRPRPRPPINPRP
shrunken log2 fold change: -0.186

RRIRNRPPRLPRPRPRPPIQPRP
shrunken log2 fold change: 0.0569

RRIRNRPPRLPRPRPRPPIVPRP
shrunken log2 fold change: -0.154

RRIRNRPPRLPRPRPRPPIYPRP
shrunken log2 fold change: -0.202

RRIRNRPPRLPRPRPRPPKKPRP
shrunken log2 fold change: -0.166

RRIRNRPPRLPRPRPRPPLRPRP
shrunken log2 fold change: 0.138

RRIRNRPPRLPRPRPRPPMNPRP
shrunken log2 fold change: -0.0606

RRIRNRPPRLPRPRPRPPMTPRP
shrunken log2 fold change: 1.77

RRIRNRPPRLPRPRPRPPNYPRP
shrunken log2 fold change: -0.564

RRIRNRPPRLPRPRPRPPPIPRP
shrunken log2 fold change: 0.801

RRIRNRPPRLPRPRPRPPREPRP
shrunken log2 fold change: 0.534

RRIRNRPPRLPRPRPRPPRFPRP
shrunken log2 fold change: 0.441

RRIRNRPPRLPRPRPRPPTNPRP
shrunken log2 fold change: 0.151

RRIRNRPPRLPRPRPRPPVAPRP
shrunken log2 fold change: 0.239

RRIRNRPPRLPRPRPRPPVCPRP
shrunken log2 fold change: 0.126

RRIRNRPPRLPRPRPRPPVQPRP
shrunken log2 fold change: 0.0479

RRIRNRPPRLPRPRPRPPWAPRP
shrunken log2 fold change: 0.38

RRIRNRPPRLPRPRPRPPWSPRP
shrunken log2 fold change: -0.294

RRIRNRPPRLPRPRPRPPYGPRP
shrunken log2 fold change: -0.0471

RRIRNRPPRLPRPRPRPPYRPRP
shrunken log2 fold change: -0.11

RRIRNRPPRLPRPRPRPQDKPRP
shrunken log2 fold change: 0.0859

RRIRNRPPRLPRPRPRPQEIPRP
shrunken log2 fold change: -0.00783

RRIRNRPPRLPRPRPRPQEQPRP
shrunken log2 fold change: 0.042

RRIRNRPPRLPRPRPRPQEWPRP
shrunken log2 fold change: -0.00211
